Literature values as cited in patent US6191103A, “Methods for enhancing thrombolysis in a mammal” (priority 1997, dated 2001).

Settings: in vivo

## tPA: tissue-type plasminogen activator, fibrinolytic agent
  plasma half-life: around 5 minutes
